This is an account of results in publication doi:10.1101/2023.02.13.528223.

As a reminder, the stoichiometry N is a count of units in the complex or per binding partner.

The experiment addresses DNMT3A^R736S (human) (UniProt Q9Y6K1). The experiment can be described thus: SEC + other: negative-stain EM.

With “DNMT3A^R736S (from UniProt Q9Y6K1 1-912) (enzyme)”, the stoichiometry N worked out at 2.
